Measurements as given in article PMC9870903, “Structural mechanism of BRD4-NUT and p300 bipartite interaction in propagating aberrant gene transcription in chromatin in NUT carcinoma” (Nature Communications, 2023).
Read-outs that look alike come from different tables or passages of the source.

Experiments:
[1] = target: p300 TAZ2 domain (residues 1723–1812) (UniProt Q09472); assay: NMR titration; 1H-15N HSQC of 15N-TAZ2 (50 μM); NUT fragment or peptide titrated from 7.8 μM to 1000 μM; 200 mM phosphate buffer pH 6.3; overlays at TAZ2/NUT molar ratio 1:3; single-site binding model
[2] = target: p300 TAZ2 domain (residues 1723–1812) (UniProt Q09472); assay: as above; remark: listed apart in the source
[3] = target: the molecule itself; assay: SEC; Superdex 200 Increase 10/300 GL in PBS, 0.3 ml/min; samples 0.8 mM; MBP-TAZ2/His-F1c in 1:1 mix ratio; calibrated with protein standards

NUT fragment of residues 377–418 (as added in NMR) (from UniProt Q86Y26 377-418) (domain or fragment)
Kd [1]: 32 µM

NUT fragment of residues 419–470 (as added in NMR) (from UniProt Q86Y26 419-470) (domain or fragment)
Kd [1]: 36 µM

GMYPDPGLLSYINELC [F1c peptide (residues 403–418)]
Kd [2]: 115 µM

FLADLLSPEKQRDPLALIEE [F1c peptide (residues 435–454)]
Kd [2]: 958 µM

B1: His-F1c (residues 346–592) (domain or fragment, UniProt Q86Y26 346-592, looked up)
chain: RRQRKAQRPPAPEAPKEIPPEAVKEYVDIMEWLVGTHLATGESDGKQEEEGQQQEEEGMYPDPGLLSYINELCSQKVFVSKVEAVIHPQFLADLLSPEKQRDPLALIEELEQEEGLTLAQLVQKRLMALEEEEDAEAPPSFSGAQLDSSPSGSVEDEDGDGRLRPSPGLQGAGGAACLGKVSSSGKRAREVHGGQEQALDSPRGMHRDGNTLPSPSSWDLQPELAAPQGTPGPLGVERRGSGKVINQ
notes: also called free His-F1c; source: purified; not shown: His, N-terminal, kept
stoichiometry N [3]: 5
